Reference: article PMC5741291 (2017)

Biological target: Actin (F-actin, skeletal muscle) (Oryctolagus cuniculus, UniProt P68135)
Test: stopped-flow light scattering

Kd: 1070 nM
B1: Myosin IIIA motor domain (p-huM3AMD) 311-1058 (protein)
chain: MGGTEKARRERIHTKKGNFNRPLISNLKDVDDLATLEILDENTVSEQLEKCYSRDQIYVYVGDILIALNPFQSLGLYSTKHSKLYIGSKRTASPPHIFAMADLGYQSMITYNSDQCIVISGESGAGKTENAHLLVQQLTVLGKANNRTLQEKILQVNNLVEAFGNACTIINDNSSRFGKYLEMKFTSSGAVVGAQISEYLLEKSRVIHQAIGEKNFHIFYYIYAGLAEKKKLAHYKLPENKPPRYLQNDHLRTVQDIMNNSFYKSQYELIEQCFKVIGFTMEQLGSIYSILAAILNVGNIEFSSVATEHQIDKSHISNHTALENCASLLCIRADELQEALTSHCVVTRGETIIRPNTVEKATDVRDAMAKTLYGRLFSWIVNCINSLLKHDSSPSGNGDELSIGILDIFGFENFKKNSFEQLCINIANEQIQYYYNQHVFAWEQNEYLNEDVDARVIEYEDNWPLLDMFLQKPMGLLSLLDEESRFPKATDQTLVEKFEGNLKSQYFWRPKRMELSFGIHHYAGKVLYNASGFLAKNRDTLPTDIVLLLRSSDNSVIRQLVNHPLTKTGNLPHSKTKNVINYQMRTSEKLINLAKGDTGEATRHARETTNMKTQTVASYFRYSLMDLLSKMVVGQPHFVRCIKPNSERQARKYDKEKVLLQLRYTGILETARIRRLGFSHRILFANFIKRYYLLCYKSSEEPRMSPDTCATILEKAGLDNWALGKTKVFLKYYHVEQLNLMRKEAIDK
modifications: phosphorylated by myosin IIIA kinase domain, MgADP
